Results reported in article PMC11467860.
Like-named read-outs stand apart in the source and are kept apart here.

B1: pre-miR-21 (structured_RNA)
RNA: UAGCUUAUCAGACUGAUGUUGACUGUUGAAUCUCAUGGCAACACCAGUCGAUGGGCUGUC
modifications: 5' phosphate
B2: snord37 (structured_RNA)
RNA: AUUCGUGAUGACUGAUCAUUUCUUCACUUUGACCAGAUGUCUACUGAAGAAAGCCUGCGUCUGAGG

How the values were obtained:
Assay in all cases: EMSA
[1] = molecular target: Dicer S839A (Homo sapiens, UniProt Q9UPY3 1-1922, S839A)
[2] = molecular target: T1, Dicer S839F (Homo sapiens, UniProt Q9UPY3 1-1922, S839F)
T1 sequence (Q9UPY3 whole entry S839F): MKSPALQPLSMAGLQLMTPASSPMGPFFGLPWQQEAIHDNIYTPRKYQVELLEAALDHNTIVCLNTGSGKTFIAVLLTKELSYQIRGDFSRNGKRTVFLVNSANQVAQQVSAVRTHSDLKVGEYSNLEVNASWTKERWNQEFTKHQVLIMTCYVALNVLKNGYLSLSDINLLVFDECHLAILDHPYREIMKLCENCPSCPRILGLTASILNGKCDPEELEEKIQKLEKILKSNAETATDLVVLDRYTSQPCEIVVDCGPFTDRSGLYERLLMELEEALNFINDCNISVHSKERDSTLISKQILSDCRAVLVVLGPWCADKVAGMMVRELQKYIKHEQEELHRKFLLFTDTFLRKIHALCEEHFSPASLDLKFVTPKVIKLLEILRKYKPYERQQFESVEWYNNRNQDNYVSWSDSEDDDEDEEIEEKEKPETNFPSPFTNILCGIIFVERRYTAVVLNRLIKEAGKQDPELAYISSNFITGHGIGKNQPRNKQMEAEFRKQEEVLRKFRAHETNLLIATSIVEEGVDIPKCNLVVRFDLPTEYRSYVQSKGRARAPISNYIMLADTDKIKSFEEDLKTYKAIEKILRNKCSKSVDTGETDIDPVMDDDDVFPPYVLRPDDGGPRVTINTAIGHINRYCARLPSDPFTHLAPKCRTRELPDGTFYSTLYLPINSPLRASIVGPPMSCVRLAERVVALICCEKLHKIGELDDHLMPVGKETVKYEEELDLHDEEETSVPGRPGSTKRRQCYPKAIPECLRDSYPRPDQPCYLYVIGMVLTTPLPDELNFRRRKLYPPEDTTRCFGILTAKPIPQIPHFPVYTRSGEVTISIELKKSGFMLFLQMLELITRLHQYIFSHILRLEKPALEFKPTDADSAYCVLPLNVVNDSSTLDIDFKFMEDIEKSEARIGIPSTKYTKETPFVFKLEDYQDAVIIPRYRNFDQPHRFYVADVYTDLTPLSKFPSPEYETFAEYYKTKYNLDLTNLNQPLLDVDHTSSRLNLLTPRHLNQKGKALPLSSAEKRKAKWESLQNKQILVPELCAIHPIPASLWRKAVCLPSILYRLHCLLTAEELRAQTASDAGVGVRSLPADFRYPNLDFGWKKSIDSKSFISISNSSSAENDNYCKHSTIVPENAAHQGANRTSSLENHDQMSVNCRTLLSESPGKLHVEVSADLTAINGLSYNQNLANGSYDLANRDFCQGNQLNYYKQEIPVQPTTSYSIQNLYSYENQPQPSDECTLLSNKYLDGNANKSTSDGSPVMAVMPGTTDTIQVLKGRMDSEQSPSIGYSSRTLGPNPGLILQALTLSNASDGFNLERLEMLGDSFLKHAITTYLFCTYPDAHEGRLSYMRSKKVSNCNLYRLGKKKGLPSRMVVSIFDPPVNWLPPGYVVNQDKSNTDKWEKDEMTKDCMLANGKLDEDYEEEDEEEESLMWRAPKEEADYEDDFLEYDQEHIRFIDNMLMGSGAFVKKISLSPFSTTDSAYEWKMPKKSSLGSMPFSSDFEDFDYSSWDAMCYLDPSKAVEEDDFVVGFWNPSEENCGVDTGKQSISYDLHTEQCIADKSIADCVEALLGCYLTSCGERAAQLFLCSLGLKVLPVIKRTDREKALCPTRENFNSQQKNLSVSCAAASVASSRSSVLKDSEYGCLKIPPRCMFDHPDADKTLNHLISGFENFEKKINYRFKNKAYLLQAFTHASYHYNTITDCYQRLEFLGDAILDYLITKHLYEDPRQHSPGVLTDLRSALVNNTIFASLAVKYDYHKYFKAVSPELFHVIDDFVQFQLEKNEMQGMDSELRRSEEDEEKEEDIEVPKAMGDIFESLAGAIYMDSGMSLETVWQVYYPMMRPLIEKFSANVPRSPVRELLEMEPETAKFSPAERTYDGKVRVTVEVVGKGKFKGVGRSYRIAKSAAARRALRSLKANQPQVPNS

[3] = molecular target: T1, Dicer S839F; remark: listed apart in the source

Dicer S839A, sequence (Q9UPY3 whole entry S839A): as the sequence (Q9UPY3 whole entry S839F) above, with F839A counted along it

Binder	binding result [1]	binding result [2]	binding result [3]
B1	binds	no binding	–
B2	–	–	binds
